This is an account of results in FireProtDB (doi:10.1021/bi010636i).

By Tm is commonly meant the temperature at the midpoint of the melting transition.

“And” between values parts separate entries of the source, which are not always exact repeats. Equal values may be shown once.

Sequences and labels used below:
B1: Cytochrome b5 type B, P04166 (parent)
chain: MATPEASGSGRNGQGSDPAVTYYRLEEVAKRNTAEETWMVIHGRVYDITRFLSEHPGGEEVLLEQAGADATESFEDVGHSPDAREMLKQYYIGDVHPNDLKPKDGDKDPSKNNSCQSSWAYWIVPIVGAILIGFLYRHFWADSKSS

In this series the parent is B1. The following applies: Rattus norvegicus, pH 7, CD, potassium phosphate buffer, transition: 2, reversible: yes, structure 1B5M, whole UniProt chain shown; for denaturant midpoint (higher = more stable): 25 °C, GdnHCl; for Tm / change of melting temperature, mutant - wild type (higher = more stable): Thermal.

As for MATPEASGSGRNGQGSDPAVTYYRLEEVAKRNTSEETWMVIHGRVYDLTRFLSEHPGGEEVLREQAGADATESFEDVGHSPDAREMLKQYYIGDVHPNDLKPKDGDKDPSKNNSCQSSWAYWIVPIVGAILIGFLYRHFWADSKSS [A34S I48L L63R], the “denaturant midpoint (higher = more stable)” value (shortened to “denaturant midpoint”) was 3.34 M and 3.33 M; the melting temperature (Tm) was found to be 81.8 °C; the “change of melting temperature, mutant - wild type (higher = more stable)” value (shortened to “change of melting temperature, mutant”) was -5.2 °C.
In the case of MATPEASGSGRNGQGSDPAVTYYRLEEVAKRNTSEETWMVIHGRVYDITRFLSEHPGGEEVLREQAGADATESFEDVGHSPDAREMLKQYYIGDVHPNDLKPKDGDKDPSKNNSCQSSWAYWIVPIVGAILIGFLYRHFWADSKSS [A34S L63R], the “denaturant midpoint” value was 3.56 M and 3.52 M; the melting temperature (Tm) is 83.3 °C; the “change of melting temperature, mutant” value was -3.7 °C.
As to MATPEASGSGRNGQGSDPAVTYYRLEEVAKRNTAEETWMVIHGRVYDLTRFLSEHPGGEEVLLEQAGADATESFEDVGHSPDAREMLKQYYIGDVHPNDLKPKDGDKDPSKNNSCQSSWAYWIVPIVGAILIGFLYRHFWADSKSS [I48L], the “denaturant midpoint” value was 3.93 M and 3.91 M; the Tm turned out to be 85.7 °C; the “change of melting temperature, mutant” value is -1.3 °C.
